Each block holds one substance with its values, some of them ahead of it.
Tests used:
[1] = target: CPTX-HIS, purified recombinant (UniProt P23435); experiment: SEC-MALS
[2] = target: CPTX, biotinylated on a C-terminal Avitag (immobilised in SPR) (UniProt P23435); experiment: SPR
[3] = target: NP1PTX fused to the C-terminus of a three-stranded GCN4 coiled coil (UniProt Q15818); experiment: SEC-MALS

Sequence of human β-neurexin-1 LNS6 domain including spliced sequence #4 (P58400 86-295): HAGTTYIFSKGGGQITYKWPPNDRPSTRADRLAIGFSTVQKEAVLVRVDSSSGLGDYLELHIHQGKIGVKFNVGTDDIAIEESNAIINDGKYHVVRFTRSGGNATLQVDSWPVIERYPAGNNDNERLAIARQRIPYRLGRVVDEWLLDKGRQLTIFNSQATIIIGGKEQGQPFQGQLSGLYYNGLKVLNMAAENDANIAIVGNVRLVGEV

stoichiometry N [1]: 6
Substance: CPTX-HIS, purified recombinant (from UniProt P23435 22-53; Q15818 224-431) (designed binder)

Kd [2]: 4.9 nM
Substance: human β-neurexin-1 LNS6 domain including spliced sequence #4 (from UniProt P58400 86-295) (domain or fragment)

stoichiometry N [3]: 3
Substance: NP1PTX fused to the C-terminus of a three-stranded GCN4 coiled coil (from UniProt Q15818 224-431)

Reference: paper PMC7116145
